Measurements as given in patent US12065471B2, “B*44 restricted peptides for use in immunotherapy against cancers and related methods” (Immatics Biotechnologies GmbH, priority 2018, dated 2024).

Biological target: HLA-B*44:05 (Homo sapiens, UniProt P01889, A223V/A65T/A93T/A95T/D201E/D98Y/E176V/E187L/E204Q/E69K/G107R/H137Y/K202T/L105A/L119I/N104T/N87E/Q56L/Q94N/R106L/R155S/R180D/S101N/S121R/S35A/S48T/T118I/V36M/W191S/Y91S)
Assay: MHC binding assay (UV-ligand exchange, β2m ELISA, peptide exchange yield)
Details: binding to HLA-B*44:05
Description: Candidate peptides for T cell-based therapies according to the present invention were further tested for their MHC binding capacity (affinity). The individual peptide-MHC complexes were produced by UV-ligand exchange, where a UV-sensitive peptide is cleaved upon UV-irradiation and exchanged with the peptide of interest as analyzed. Only peptide candidates that can effectively bind and stabilize the peptide-receptive MHC molecules prevent dissociation of the MHC complexes. To determine the yield of the exchange reaction, an ELISA was performed based on the detection of the light chain (β2m) of stabilized MHC complexes. The assay was performed as generally described in Rodenko et al. (Rodenko et al., 2006)
96 well MAXISorp plates (NUNC) were coated over night with 2 μg/ml streptavidin in PBS at room temperature, washed 4× and blocked for 1 h at 37° C. in 2% BSA containing blocking buffer. Refolded HLA-A*02:01/MLA-001 monomers served as standards, covering the range of 15-500 ng/ml. Peptide-MHC monomers of the UV-exchange reaction were diluted 100-fold in blocking buffer. Samples were incubated for 1h at 37° C., washed four times, incubated with 2 μg/ml HRP conjugated anti-β2m for 1h at 37° C., washed again and detected with TMB solution that is stopped with […]. Absorption was measured at 450 nm.

| Substance | Peptide exchange (MHC class I binding score, peptide exchange yield) |
| --- | --- |
| 356 (TEAVLNRY; listed as Homo sapiens) [compound 356] | ++ (>20% = ++) |
| 283 (VEEEISRHY; listed as Homo sapiens) [compound 283] | ++ (>20% = ++) |
| 166 (EEQDFINNRY; listed as Homo sapiens) [compound 166] | ++++ (>75% = ++++) |
| 140 (TEHSGIYSC; listed as Homo sapiens) [compound 140] | ++ (>20% = ++) |
| 395 (AEDFVWAQW; listed as Homo sapiens) [compound 395] | ++++ (>75% = ++++) |
| 14 (EMPGGPVW; listed as Homo sapiens) [compound 14] | +++ (>50 = +++) |
| 214 (SVNPIIYGF; listed as Homo sapiens) [compound 214] | ++ (>20% = ++) |
| 94 (SLAELIAKDW; listed as Homo sapiens) [compound 94] | ++ (>20% = ++) |
| 125 (LEVLHQGQW; listed as Homo sapiens) [compound 125] | +++ (>50 = +++) |
| 412 (EESFDSKFY; listed as Homo sapiens) [compound 412] | +++ (>50 = +++) |
| 433 (AEEGPSVPKIY; listed as Homo sapiens) [compound 433] | +++ (>50 = +++) |
| 355 (SETSTGTSV; listed as Homo sapiens) [compound 355] | ++ (>20% = ++) |
| 191 (AEHDMKSVL; listed as Homo sapiens) [compound 191] | +++ (>50 = +++) |
| 324 (QELSSIRQF; listed as Homo sapiens) [compound 324] | +++ (>50 = +++) |
| 330 (SEHLFGTSY; listed as Homo sapiens) [compound 330] | +++ (>50 = +++) |
| 446 (AENIKKFLY; listed as Homo sapiens) [compound 446] | +++ (>50 = +++) |
| 198 (REEEANVVL; listed as Homo sapiens) [compound 198] | +++ (>50 = +++) |
| 362 (SEVEYINKY; listed as Homo sapiens) [compound 362] | +++ (>50 = +++) |
| 384 (LDGIPTAGW; listed as Homo sapiens) [compound 384] | +++ (>50 = +++) |

| Substance | Peptide exchange (MHC class I binding score, peptide exchange yield) |
| --- | --- |
| 138 (KEAPNIVTL; listed as Homo sapiens) [compound 138] | ++++ (>75% = ++++) |
| 310 (FELECPVKY; listed as Homo sapiens) [compound 310] | +++ (>50 = +++) |
| 196 (TELEVKIRDW; listed as Homo sapiens) [compound 196] | ++++ (>75% = ++++) |
| 124 (NENLDYAIL; listed as Homo sapiens) [compound 124] | ++++ (>75% = ++++) |
| 434 (AEQQQQQMY; listed as Homo sapiens) [compound 434] | +++ (>50 = +++) |
| 317 (TEFQQIINL; listed as Homo sapiens) [compound 317] | ++++ (>75% = ++++) |
| 281 (HEIPQESL; listed as Homo sapiens) [compound 281] | + (>10% = +) |
| 64 (EEYQDSFERY; listed as Homo sapiens) [compound 64] | ++ (>20% = ++) |
| 232 (YEIRAEAL; listed as Homo sapiens) [compound 232] | ++ (>20% = ++) |
| 273 (TEFELLHQV; listed as Homo sapiens) [compound 273] | +++ (>50 = +++) |
| 27 (GETCVRITY; listed as Homo sapiens) [compound 27] | +++ (>50 = +++) |
| 172 (RENPGMFSW; listed as Homo sapiens) [compound 172] | +++ (>50 = +++) |
| 195 (MEIKGTVTEF; listed as Homo sapiens) [compound 195] | +++ (>50 = +++) |
| 285 (AEHPDFSPCSF; listed as Homo sapiens) [compound 285] | +++ (>50 = +++) |
| 118 (SEVPVDSHYY; listed as Homo sapiens) [compound 118] | +++ (>50 = +++) |
| 81 (GEKATMQNL; listed as Homo sapiens) [compound 81] | ++ (>20% = ++) |
| 303 (GEDAHLTQY; listed as Homo sapiens) [compound 303] | ++ (>20% = ++) |
| 174 (DENDAGNLITF; listed as Homo sapiens) [compound 174] | +++ (>50 = +++) |
| 114 (VEVNGVPRW; listed as Homo sapiens) [compound 114] | ++++ (>75% = ++++) |

| Substance | Peptide exchange (MHC class I binding score, peptide exchange yield) |
| --- | --- |
| 444 (SESALQTVI; listed as Homo sapiens) [compound 444] | +++ (>50 = +++) |
| 373 (REDPIVYEI; listed as Homo sapiens) [compound 373] | ++ (>20% = ++) |
| 201 (MEILWKTLT; listed as Homo sapiens) [compound 201] | ++++ (>75% = ++++) |
| 410 (RELEEEFYSL; listed as Homo sapiens) [compound 410] | +++ (>50 = +++) |
| 327 (SEQHSLPVF; listed as Homo sapiens) [compound 327] | +++ (>50 = +++) |
| 376 (SESDGIEQL; listed as Homo sapiens) [compound 376] | +++ (>50 = +++) |
| 113 (MEFKTLNKN; listed as Homo sapiens) [compound 113] | ++ (>20% = ++) |
| 187 (TEQALRLSV; listed as Homo sapiens) [compound 187] | ++++ (>75% = ++++) |
| 312 (KEWEREKAVSL; listed as Homo sapiens) [compound 312] | +++ (>50 = +++) |
| 438 (AELDSKILAL; listed as Homo sapiens) [compound 438] | +++ (>50 = +++) |
| 295 (QELEQEVISL; listed as Homo sapiens) [compound 295] | +++ (>50 = +++) |
| 325 (AEQEIMKKV; listed as Homo sapiens) [compound 325] | ++++ (>75% = ++++) |
| 96 (MDELEEGESY; listed as Homo sapiens) [compound 96] | + (>10% = +) |
| 182 (EELHAALSEW; listed as Homo sapiens) [compound 182] | ++++ (>75% = ++++) |
| 370 (EEVLLANALW; listed as Homo sapiens) [compound 370] | +++ (>50 = +++) |
| 432 (TEENGFWYL; listed as Homo sapiens) [compound 432] | ++++ (>75% = ++++) |
| 377 (AEDARGWTA; listed as Homo sapiens) [compound 377] | ++ (>20% = ++) |
| 129 (EEAMKRLSY; listed as Homo sapiens) [compound 129] | ++ (>20% = ++) |
| 367 (TEFAVKLKI; listed as Homo sapiens) [compound 367] | +++ (>50 = +++) |
